Results on four molecules are retold here after patent US20200024330A1.

Assay [1] deals with HIV-1 Env of isolate 92WR009 (HIV-1). In words: cell-based or functional assay.
Assay [2] deals with HIV-1 Env of isolate CMU02 (HIV-1). Kind of assay: cell-based or functional assay.
For assay [3], the target named is HIV-1 Env of isolate MGRM-A-009 (HIV-1). Kind of assay: cell-based or functional assay.
Assay [4] has as its target HIV-1 Env of isolate MGRM-AE-003 (HIV-1). Kind of assay: cell-based or functional assay.
Assay [5] deals with HIV-1 Env of isolate MGRM-A-004 (HIV-1). Kind of assay: cell-based or functional assay.
Assay [6] has as its target HIV-1 Env of isolate MGRM-A-005 (HIV-1). In words: cell-based or functional assay.
In assay [7] the target is HIV-1 Env of isolate 92WR026 (HIV-1). Kind of assay: cell-based or functional assay.
Assay [8] concerns the target HIV-1 Env of isolate MGRM-A-001 (HIV-1). Kind of assay: cell-based or functional assay.
The target of assay [9] is HIV-1 Env of isolate MGRM-A-011 (HIV-1). In words: cell-based or functional assay.
For assay [10], the target named is HIV-1 MGRM-C-027 envelope glycoprotein (Env) (HIV-1). In words: cell-based or functional assay.
Assay [11] has as its target HIV-1 Env of isolate MGRM-A-014 (HIV-1). Kind of assay: cell-based or functional assay.
Assay [12] has as its target HIV-1 92RW020 envelope glycoprotein (Env) (HIV-1). In words: cell-based or functional assay.
Assay [13] has as its target HIV-1 Env of isolate MGRM-A-002 (HIV-1). Kind of assay: cell-based or functional assay.
Assay [14] addresses HIV-1 Env of isolate VLGCA1 (HIV-1). Kind of assay: cell-based or functional assay.
For assay [15], the target named is HIV-1 JRFL envelope glycoprotein (Env) (HIV-1). Kind of assay: cell-based or functional assay.
Assay [16] addresses HIV-1 92BR020 envelope glycoprotein (Env) (HIV-1). Kind of assay: cell-based or functional assay.
The target of assay [17] is HIV-1 Env of isolate 92WR021 (HIV-1). Kind of assay: cell-based or functional assay.
The target in assay [18] is HIV-1 Env of isolate MGRM-A-008 (HIV-1). In words: cell-based or functional assay.
In assay [19] the target is HIV-1 Env of isolate 92UG031 (HIV-1). In words: cell-based or functional assay.
For assay [20], the target named is HIV-1 Env of isolate MGRM-A-006 (HIV-1). In words: cell-based or functional assay.
Assay [21] deals with HIV-1 APV13 envelope glycoprotein (Env) (HIV-1). In words: cell-based or functional assay.
In assay [22] the target is HIV-1 Env of isolate 94UG103 (HIV-1). In words: cell-based or functional assay.
Assay [23] deals with Env of the clade AE HIV-1 pseudoviruses of the cross-clade 162-pseudovirus panel (n = 10). In words: cell-based or functional assay.
The target in assay [24] is HIV-1 Env of isolate MGRM-A-007 (HIV-1). Kind of assay: cell-based or functional assay.
Assay [25] concerns the target HIV-1 Env of isolate 94KE105 (HIV-1). Kind of assay: cell-based or functional assay.
For assay [26], the target named is HIV-1 NL43 envelope glycoprotein (Env) (HIV-1). In words: cell-based or functional assay.
The target in assay [27] is HIV-1 Env of isolate 93WR029 (HIV-1). In words: cell-based or functional assay.
For assay [28], the target named is HIV-1 Env of isolate 92RW008 (HIV-1). In words: cell-based or functional assay.
The target of assay [29] is HIV-1 Env of isolate MGRM-A-003 (HIV-1). In words: cell-based or functional assay.
For assay [30], the target named is HIV-1 Env of isolate MGRM-AE-001 (HIV-1). In words: cell-based or functional assay.
Assay [31] deals with HIV-1 Env of isolate MGRM-A-010 (HIV-1). In words: cell-based or functional assay.
Assay [32] deals with HIV-1 JRCSF envelope glycoprotein (Env) (HIV-1) (UniProt P20871). In words: cell-based or functional assay.
In assay [33] the target is HIV-1 JR-CSF Env G324A (HIV-1 isolate JR-CSF) (UniProt P20871). Kind of assay: cell-based or functional assay.
The target of assay [34] is HIV-1 Env of isolate 92UG037 (HIV-1). In words: cell-based or functional assay.
The target of assay [35] is HIV-1 Env of isolate MGRM-AE-002 (HIV-1). Kind of assay: cell-based or functional assay.
The target of assay [36] is HIV-1 93IN905 envelope glycoprotein (Env) (HIV-1). In words: cell-based or functional assay.
The target in assay [37] is HIV-1 94UG103 envelope glycoprotein (Env) (HIV-1). Kind of assay: cell-based or functional assay.
Assay [38] has as its target JR-FL gp120 ΔV3 (HIV-1 (isolate JR-FL)). Kind of assay: ELISA on coated gp120; EC50 by nonlinear regression. For orientation: An ELISA detects its analyte on a solid surface through an enzyme-linked reagent.
In assay [39] the target is HIV-1 Env of isolate 92BR020 (HIV-1). In words: cell-based or functional assay.
In assay [40] the target is HIV-1 Env of isolate 93IN905 (HIV-1). Kind of assay: cell-based or functional assay.

B1: PGT-126 (antibody, V domains shown)
VH: QPQLQESGPGLVEASETLSLTCTVSGDSTAACDYFWGWVRQPPGKGLEWIGGLSHCAGYYNTGWTYHNPSLKSRLTISLDTPKNQVFLKLNSVTAADTAIYYCARFDGEVLVYHDWPKPAWVDLWGRGTLVTVSS
VL: QSALTQPPSASGSPGQSISISCTGTSNRFVSWYQQHPGKAPKLVIYGVNKRPSGVPDRFSGSKSGNTASLTVSGLQTDDEAVYYCSSLVGNWDVIFGGGTKLTVL
With B1, the IC50 (µg/mL), pseudovirus neutralization in [1] was more than 50 µg/mL; in [2], more than 50 µg/mL; in [3], 0.004 µg/mL; in assay [4], more than 50 µg/mL; in assay [5], more than 50 µg/mL; in assay [6], more than 50 µg/mL. For the same molecule, the IC50 (µg/mL), pseudovirus neutralization in [7] is 0.008 µg/mL; in assay [8] it was more than 50 µg/mL; in assay [9], more than 50 µg/mL; in [11] it was 0.01 µg/mL; in assay [13], 0.015 µg/mL; in assay [14], more than 50 µg/mL. Also, the IC50 (µg/mL), pseudovirus neutralization in assay [17] was 0.006 µg/mL; in [18] it was more than 50 µg/mL; in assay [19] it was more than 50 µg/mL; in assay [20] it was more than 50 µg/mL; in assay [22], 0.008 µg/mL; in assay [24] it was more than 50 µg/mL. Besides, the IC50 (µg/mL), pseudovirus neutralization in assay [25] is 0.006 µg/mL; in [27], more than 50 µg/mL; in assay [28], 0.008 µg/mL; in [29], more than 50 µg/mL; in assay [30], 9.68 µg/mL; in assay [31], 0.002 µg/mL. The IC50 (µg/mL), pseudovirus neutralization was 0.011 µg/mL in assay [34] and more than 50 µg/mL in assay [35]. Also, the IC50 neutralization in assay [10] is 1.14 µg/mL; in [12], 0.0046 µg/mL; in assay [15], 0.014 µg/mL; in assay [16] it was 0.0163 µg/mL; in [21] it was 0.012 µg/mL; in [26], more than 10 µg/mL. Also, the figures for the IC50 neutralization in [32], in [36] and in [37] were 0.0061 µg/mL, 0.0194 µg/mL and 0.0091 µg/mL, respectively. In assay [23], this molecule showed a Median IC50 against viruses neutralized with an IC50 <50 µg/ml of 1.77 µg/mL. The Fold IC50 increase relative to wild-type in [33] was 3.3 fold.

B2: PGT-128 (antibody, V domains shown)
VH: QPQLQESGPTLVEASETLSLTCAVSGDSTAACNSFWGWVRQPPGKGLEWVGSLSHCASYWNRGWTYHNPSLKSRLTLALDTPKNLVFLKLNSVTAADTATYYCARFGGEVLRYTDWPKPAWVDLWGRGTLVTVSS
VL: QSALTQPPSASGSPGQSITISCTGTSNNFVSWYQQHAGKAPKLVIYDVNKRPSGVPDRFSGSKSGNTASLTVSGLQTDDEAVYYCGSLVGNWDVIFGGGTKLTVL
Usually EC50 stands for the concentration that produces a half-maximal response. The low end stands for higher potency in that assay, the high end for lower potency in that assay. Regarding B2, the Median IC50 against viruses neutralized with an IC50 <50 µg/ml in assay [23] came out at 0.05 µg/mL. In assay [38], this molecule yielded an EC50 of 7.8 µg/mL.

B3: PGT-123 (antibody, V domains shown)
VH: QLHLQESGPGLVKPPETLSLTCSVSGASINDAYWSWIRQSPGKRPEWVGYVHHSGDTNYNPSLKRRVTFSLDTAKNEVSLKLVDLTAADSATYFCARALHGKRIYGIVALGELFTYFYMDVWGKGTAVTVSS
VL: SSMSVSPGETAKISCGKESIGSRAVQWYQQKPGQPPSLIIYNNQDRPAGVPERFSASPDFRPGTTATLTITNVDAEDEADYYCHIYDARGGTNWVFDRGTTLTVL
For B3, the IC50 (µg/mL), pseudovirus neutralization was 15.7 µg/mL in [1]; more than 50 µg/mL in [2]; 0.004 µg/mL in assay [3]; more than 50 µg/mL in [4]; more than 50 µg/mL in [5]; more than 50 µg/mL in assay [6]. For the same molecule, the IC50 (µg/mL), pseudovirus neutralization is 0.012 µg/mL in assay [7]; more than 50 µg/mL in assay [8]; more than 50 µg/mL in assay [9]; 0.003 µg/mL in assay [11]; 0.011 µg/mL in assay [13]; more than 50 µg/mL in [14]. Also, the IC50 (µg/mL), pseudovirus neutralization was 0.005 µg/mL in assay [17]; more than 50 µg/mL in assay [18]; more than 50 µg/mL in assay [19]; more than 50 µg/mL in assay [20]; 0.678 µg/mL in [22]; more than 50 µg/mL in assay [24]. Further, the IC50 (µg/mL), pseudovirus neutralization is 0.024 µg/mL in assay [25]; more than 50 µg/mL in [27]; 0.003 µg/mL in assay [28]; 0.495 µg/mL in [29]; more than 50 µg/mL in assay [30]; 0.705 µg/mL in [31]. The IC50 (µg/mL), pseudovirus neutralization is 0.023 µg/mL in assay [34] and more than 50 µg/mL in [35]. Also, the IC50 neutralization in [10] is 0.0169 µg/mL; in [12], 0.0038 µg/mL; in assay [15] it was 0.0283 µg/mL; in assay [16], 0.013 µg/mL; in assay [21] it was 0.222 µg/mL; in [26] it was more than 10 µg/mL. Besides, the IC50 neutralization in [32] stood at 0.0423 µg/mL; in [36], 0.0071 µg/mL; in [37] it was 0.846 µg/mL. For the same molecule, the Primary Neutralization Index (B cell culture well 4858 P8) stood at 1.1 in assay [22] and 2.8 in assay [39]. The molecule also yielded a Fold IC50 increase relative to wild-type in assay [33] of 14.5 fold.

B4: PGT-135 (antibody, V domains shown)
VH: QLQMQESGPGLVKPSETLSLSCTVSGDSIRGGEWGDKDYHWGWVRHSAGKGLEWIGSIHWRGTTHYKESLRRRVSMSIDTSRNWFSLRLASVTAADTAVYFCARHRHHDVFMLVPIAGWFDVWGPGVQVTVSS
VL: EIVMTQSPDTLSVSPGETVTLSCRASQNINKNLAWYQYKPGQSPRLVIFETYSKIAAFPARFVASGSGTEFTLTINNMQSEDVAVYYCQQYEEWPRTFGQGTKVDIK
In the case of B4, the IC50 neutralization in [10] is more than 10 µg/mL; in [12] it was 0.157 µg/mL; in assay [15], more than 10 µg/mL; in assay [16] it was 0.104 µg/mL; in [21] it was 0.545 µg/mL; in assay [26], 6.79 µg/mL. Further, the values for the IC50 neutralization in assay [32], in assay [36] and in assay [37] were 0.113 µg/mL, 0.0183 µg/mL and more than 10 µg/mL, respectively. Moreover, the Primary Neutralization Index (B cell culture well 5343 B8) in assay [40] came to 43. Besides, the Primary Neutralization Index (B cell culture well 5344 E16) in [40] stood at 2.3. Besides, in assay [33], the Fold IC50 increase relative to wild-type was determined as 0.4 fold. In assay [38], this molecule yielded a concentration giving a half-maximal response (EC50) of 0.2 µg/mL.
